Test [1] addresses 2F5 (broadly neutralizing human monoclonal antibody to the gp41 MPR). As to the kind of experiment: cell-based or functional assay.
Test [2] shares this target. Nature of the test: competition ELISA, peptide serially diluted with 1 ug/ml 2F5 on NE3-captured HBsAg-MPR particles. (In an ELISA, binding on a coated surface is turned into a signal by an enzyme label.)

Two molecules from US20080267989A1 can be followed below.

Consider “HBsAg-MPR particles (HBsAg with the HIV-1 gp41 membrane proximal region at the C-terminus)”, for which, in test [1], the neutralization activity of 2F5 adsorbed out, SF162.LS virus (TZM-B1 cells, luciferase) is 21% and the neutralization activity of 2F5 adsorbed out, YU2.5G3 virus (TZM-B1 cells, luciferase) is 10%.

Regarding NEQELLELDKWASLWN [16-mer peptide harboring the 2F5 epitope (…)], the fold enhancement of 2F5 binding to HBsAg-MPR particle in test [2] came out at 2 fold.
